Experimental data from patent US20160046678A1 (ZYNGENIA, published 2016).
Ends that are not written are not given here.

Target: T1, Angiopoietin-2 (Ang2) (human, UniProt O15123 19-496, biotin label in Examples 22-24)
T1 construct: also called rhAng2; recombinant Ang2
T1 sequence (looked up): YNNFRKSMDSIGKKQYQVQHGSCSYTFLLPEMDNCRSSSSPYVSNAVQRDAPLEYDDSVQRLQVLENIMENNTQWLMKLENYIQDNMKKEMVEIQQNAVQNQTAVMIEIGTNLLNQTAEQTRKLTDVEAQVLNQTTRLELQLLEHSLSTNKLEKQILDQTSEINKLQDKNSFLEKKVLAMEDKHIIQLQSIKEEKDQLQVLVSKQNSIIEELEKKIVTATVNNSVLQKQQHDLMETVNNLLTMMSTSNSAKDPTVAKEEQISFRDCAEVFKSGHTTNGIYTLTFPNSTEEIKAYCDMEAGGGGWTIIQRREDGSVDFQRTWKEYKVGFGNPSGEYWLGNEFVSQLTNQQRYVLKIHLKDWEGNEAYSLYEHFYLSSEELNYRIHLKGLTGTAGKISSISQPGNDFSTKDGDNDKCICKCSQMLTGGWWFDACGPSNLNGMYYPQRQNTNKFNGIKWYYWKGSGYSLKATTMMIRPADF
Assay: ELISA, MRD-MBP fusions on rhAng2-coated wells; references L17D and Lm32 KtoS MBP fusions

fold higher affinity: > 10 fold
B1: 2xLm32 MRD-MBP fusion (other)
chain: MGAQTNFMPMDNDELLLYEQFILQQGLEGGSGSTASSGSGSSLGAQTNFMPMDNDELLLY
modifications: also: fused to maltose binding protein, MRD downstream of malE, two copies of Lm32
notes: also called Lm32 dimer; LM-2x-32; not shown: MRD inserted downstream of malE
